According to the domain aggregation screens of Martell et al. (2025):

Assay: soluble fraction after stress (log2 fold change); higher = more stays soluble; pooled small domains, quantitative proteomics
Conditions: stress: 50 degC
Summary of the method: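 Pooled custom libraries of small protein domains were measured in a high-throughput format, with quantitative proteomics as the read-out. Each library was stressed at 50°C. Aggregation propensity is given as the base-two logarithm of the fold change in how much of each protein stays soluble after the stress. Higher values mean a larger share of the protein remains in solution.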
For “HMVQIFIPVVHDDHWFLIVFSREEDTFYVLDSLPSLSRISTINGIISTLKEHLQQASVGPQYSVKVLPVK”, the “soluble fraction (log2)” value was -0.172. With “HMTKYREVLRMSAGGFSQRVIASTLSISRNTVASTLKRAREQNLDWEAVEQQRLSEKDIANLLFP” the “soluble fraction (log2)” value was -0.996. With “HMYNMEELAGHTEKVYNSLPEELKLVIKLREIENMSYDEISLKTGMPIGTVRSRLHRAREILVDSLKDY” the “soluble fraction (log2)” value was -0.367. With “HMDSDRAARLSSLTPQQFRVLRMVSEGQLNKQIAYQLNISEATVKSHVSAILQKLGVNSRTQAVILATRLD” the “soluble fraction (log2)” value was -2.01. For “HMKYSQAMIAQIIKHFHLPNNTVVTGEDVDAILLRSVDGGDGIYGGDVVSIWKYYKKQNDIQEIVT”, the “soluble fraction (log2)” value was -0.645. With “HMANKLSEQIYGSILKDIVNGVYAPREFISEAQIAAKYGVSKAPVKEAMHILASEGFLLSYPKRGYMVN” the “soluble fraction (log2)” value was -0.347. With “HMGDVSGFLRGVLADGPVPAKTVFSEASGAGYSRDQIQRAARKIGVERRKTGMAGGWVWELEP” the “soluble fraction (log2)” value was 0.014. With “HMTDLDDFAARLKTLTDGRASTPRLRDGVMMLSLDVGGLGPDQRDGLIAAIREGGLTVPGVSDVRIVMT” the “soluble fraction (log2)” value was 0.0757. For “HMGGLALAEREVVEWLSQRNLLPSPDVVARAAAHPDGLGWLERSLAVLEGPRLFLGLGDLVPEP”, the “soluble fraction (log2)” value was -0.411. In the case of “HMQQPVAYSEFVQSVNDRQIREAQIQGERIVATDNNGNRMTVIWPENDTKLLDELVQNGVLTSIQE”, the “soluble fraction (log2)” value is reported as 0.12. With “HMDIAYFSNAELNDAFIQFLNMRQEAGKQLNGYQIQILTEKLERVADTDEDRISAVKNAIAGGWSNFYPPK” the “soluble fraction (log2)” value was -0.272. In the case of “HMKNVSVKMILSPESLGEIQVDLVFSKGKDLEIMLRPETAEVAKLIQSNSASLREQLSLEHKGPLSLNVS”, the “soluble fraction (log2)” value is reported as -0.626. For “HMEEDGAPLESREVLLDQAISQGKGTQWTIATETKLEDHIVSGAYSTDGKVTLAVFSPLGDGKYEFSSSVN”, the “soluble fraction (log2)” value was 0.0751. For “HMIGILSDREAEILALLDEGLTNKAIGRRLNLAEPTVKFHLKNLYAKLGVGRRQLAVNVAKGSGLLNSD”, the “soluble fraction (log2)” value was -0.699. For “HMIEMAGGYRKGDRVELHSLKGAAEHNGKQGTVVGPQGERVKVLLDDSDSKTLALKVTNLTKLESA”, the “soluble fraction (log2)” value was 0.112. For “HMLLTDGLERRIDGDKNLHIRISLPMLVKGQIKLAKSGNNESTVKGIFKIESYPGSHPRDVVTEIIEG”, the “soluble fraction (log2)” value was -0.0938. For “HMPTQTEELRRRIVADVNAGEPGAKLGSERELAERYGTSRSSLRQVLAALQEAGLIDRVIGRSGGIFISH”, the “soluble fraction (log2)” value was -0.0372. In the case of “HMDSERTALLSSDRTSFTAREAALLIGVSQRDIYRMIEDELLDSFTVGKMIRIRRSALEWWLS”, the “soluble fraction (log2)” value is reported as -2.92. In the case of “HMAAELQALSVRELEVLDQLAGGASNREIAQRLYISENTVRNHVHSILTKLKLQNRTQLVGMT”, the “soluble fraction (log2)” value is reported as -0.239. With “HMQLPTPEDLKKRRNELGLTQSDLAKRAGVSQPLIARIESGDVDPRLSTVRKILDAFEEVEKEQQ” the “soluble fraction (log2)” value was 0.0795. In the case of “HMTLAEEFNNLNGKVITRETLESLLVKAEKEQNSTISNRIRKVLQAYTADTFLIELQHTESA”, the “soluble fraction (log2)” value is reported as 0.0776. In the case of “HMTLKTISLTEAIKNTNEGNYSKLVLDGNELTITEQGKETPSLKTYTEPGTSLKEQGFDLSKVEFEAREQS”, the “soluble fraction (log2)” value is reported as 0.152. For “HMIPLKTEAIPVSYGDGAAIIRSLAVAFPSRTFHWDAQTRRIIGQALDEEWQVIRSLVWQLDIP”, the “soluble fraction (log2)” value was -0.584. For “HMNNVRIEHIDTIGTVRLHKKRGVKRVSLRIHQSGEIRVTQPLYLPFSAGVLFAKSHTEWIMKQKQK”, the “soluble fraction (log2)” value was -0.000591. In the case of “HMAREFPGTIIKRGSRGPDVRWIQQHIGVKLVDGVFGRGTERAVKQFQSRRRLKADGIVGRQTWAAIHN”, the “soluble fraction (log2)” value is reported as -0.999. For “HMLVNNSTIETVIDFANVKFGMELTKDQVSEQLRNLSFSQTLKLINSMKADDNDAFSEIIDL”, the “soluble fraction (log2)” value was -0.672. With “HMWQVVEVDYGTFMSMTEDGQVGRVEIQEQENLILFTDQEETTVYKTAMVDDPDLTARLHDAGIPFYGQE” the “soluble fraction (log2)” value was -0.64. For “HMGIYFIIAAKNQENNIEEFIRTTLFRIVYGKEESINNITLVDLKSKDNTKNIMEEIARENENVKV”, the “soluble fraction (log2)” value was -0.335. For “HMSSANIKLDPLERQATQQIINNIKRKYPNATIENLQEVANDAIATMRQPEFSNYTVDKFVSYFLSM”, the “soluble fraction (log2)” value was -0.333. For “HMKRWHVGDPIDALTAAGKVPSWSTIRQRFWKTIAALYPDIEQSERLQRGLAMLDEAGTSIELHHP”, the “soluble fraction (log2)” value was -1.01. In the case of “HMSAAMTESVLDGIPGLGATRKAALLAHFGSVRKLRAATSEQVREVPGIGPRLAETILATLHEP”, the “soluble fraction (log2)” value is reported as -0.181. In the case of “HMAGVSVTSLTTFWRLAADTPDTPSGADDPSGWSRTEPSIPDGYEGKLYRTIRTIMSDGTATWTSPD”, the “soluble fraction (log2)” value is reported as -0.357. In the case of “HMDLDYSGIMNVLNQKYHITFYNNKKIQNLMPKLMIIMGYNSIINEIGHSKSLKALINSFEEKLKSYILT”, the “soluble fraction (log2)” value is reported as -3.02. For “HMNKTEIISILEKIVLPTQIRNINIFGSEVIIDLNIDNPSLHAKKKLEKSIINSFDKNHKIIINFNVE”, the “soluble fraction (log2)” value was -0.232. With “HMNLVRQHTDYAFRLLVALSQAPGKPISTRTLASAADVPYQFASKIMQKLHEEGLVESVMGPFGGFRLVQ” the “soluble fraction (log2)” value was -2.52. With “HMSAAIGEAVIATDEINVRSGPGLSHEIVSVVSRNESYPILEERGDWVQIQLNGGQKGWVVSWLIKKKS” the “soluble fraction (log2)” value was 0.169. With “HMDNNNQAAFMGALNSLKEYAKVNGNIVTKQDVESYFKDLGLDDSKYQMITGYLLANDITVKG” the “soluble fraction (log2)” value was 0.0282. In the case of “HMDIPDIGHNVRIEVDGHNGKTTHEGIILHPAAPNHITIKLANGYNASYKLEEIINIEILGELGDDSKI”, the “soluble fraction (log2)” value is reported as -0.0692. With “HMTSRIHDYWTSPGQPGYAKIGWGTAGDFRRAKALIGEKIAANSPEDMRYLNQIIAQWHFDALGYWPGDH” the “soluble fraction (log2)” value was -2.49. With “HMSTDIPFNIFSQKWNADEIDSIVVENNKIEGKTKDNKKFSTYAPDELLTSLMENHKNPNVIVEFRAP” the “soluble fraction (log2)” value was 0.277. For “HMLSSNEIKEIFALFDKSNRGQVATSELGTLVRALNLNPTETEITDMQSKVDPKGQGSFTLDVLEKVVQD”, the “soluble fraction (log2)” value was 0.206. For “HMTIGPALAIGGNKVEMTQQGKIQVTNPQGKIKTLSQDEFKKQLVKNADKIEAGQDFEFKKD”, the “soluble fraction (log2)” value was 0.263. With “HMENTVVMPNLLGKTMTEAKIELKDLSISITLKGSENSSQYAAGQIISQSVDSGTRVAVGSSVEVTIAGS” the “soluble fraction (log2)” value was 0.0377. In the case of “HMGGKWKLRILWHIHHGDTRFSTLKRGIPEISEKILAQQLRELEEHQLIKRRVVTVMPPHVVYEL”, the “soluble fraction (log2)” value is reported as -2.28. For “HMKVSAEEQNILDALQAAGGYLPFHDKSNPEEIYEAFGISKKTFKMIIGSLYKQQKINLTQTGIQLII”, the “soluble fraction (log2)” value was -0.0574. For “HMDTEIGDILALRQIMELLDEKDRQLIIMRYFQGLTQSVTAKNLNMTQVQVSRREKKLLTFMREQLL”, the “soluble fraction (log2)” value was -0.739. With “HMAPRIVTIQIPVDKIRDVIGPGGKVIRSIIERTGVKIDVEDDGRVNVASADGDSAQRAIAIIQELTAT” the “soluble fraction (log2)” value was 0.0444. With “HMEISAIIGNNLQQLRKEQGLSLDQLALKTGVSKAVLSQLENGKANPTINTIWKIATALHVTYSALLEPP” the “soluble fraction (log2)” value was -0.391. In the case of “HMITPAGVPPALLPVFDQFTLPDGTLRRGAVAAALRALYGPDAPQSGKRYQMEYDRVMAWHSQYFTSLH”, the “soluble fraction (log2)” value is reported as -0.34. In the case of “HMQIEQVDYGTFMTMIDDKKIDKVEIKDNQILFIGKDDNKKYKTGIVQDPQLAERLHASGAVFSQDI”, the “soluble fraction (log2)” value is reported as -0.136. For “HMSAGPQGRTPREDELTVGTKVYVSRVGASGVVSSDVSRGKVVVQVGALRLTAAVSELLLLDG”, the “soluble fraction (log2)” value was 0.151. In the case of “HMTTLEGIEKYLGSGMIRGIGPAYAGRLTKVFGEAVFDVIEQSPERLREVEGIGPKRVSRIVSGWAEQ”, the “soluble fraction (log2)” value is reported as -0.264. In the case of “HMKNYALHEPMMDRIAKVNALYDAGHTIKYMTARGAVSMVDYYDLTKSQLDSWGAKYHELSVGK”, the “soluble fraction (log2)” value is reported as -0.0372. In the case of “HMIGMDMQELIGRYKGDPDEMGKIELAAMSMLKLSEDMSSDHVLQKSKLRQDGLWLLKYVQE”, the “soluble fraction (log2)” value is reported as -0.551. With “HMRGDQLREHLLWTAKDVFLELGFERASMDAVAARAETSKRSLYAHFESKEKLFLAVIDLVRG” the “soluble fraction (log2)” value was -3.67.
